Reference: the MegaScale stability set (Tsuboyama et al. 2023)

B1: EHEE_rd2_0601 (parent)
chain: TYTYKLTDEEASRRAEDEWRNRGYDVRVRNNNGTWEVEVR

Variants of: B1
Assay: folding stability dG (cDNA display proteolysis); higher = more stable
Conditions: PBS, room temperature

| Variant | folding stability dG |
| --- | --- |
| R20F | 0.22 kcal/mol |
| R20K | 1.32 kcal/mol |
| R20Y | 0.246 kcal/mol |
| Y24V | 0.003 kcal/mol |
| Y24F | 1.51 kcal/mol |
| W35T | -0.644 kcal/mol |
| W35L | -0.206 kcal/mol |
| W35F | 0.888 kcal/mol |
| V39F | 0.048 kcal/mol |
| V39W | -0.503 kcal/mol |
| V39H | -0.712 kcal/mol |
| V39C | 1.46 kcal/mol |
| G23Y | -0.588 kcal/mol |
| G23C | 1.14 kcal/mol |
| G23H | -0.048 kcal/mol |
| R14Y | 0.942 kcal/mol |
| R14A | 1.36 kcal/mol |
| R14P | -0.495 kcal/mol |
| R14Q | 1.35 kcal/mol |
| Y2L | 1.41 kcal/mol |
| Y2N | 0.674 kcal/mol |
| Y2E | 0.682 kcal/mol |
| Y2R | 1.58 kcal/mol |
| Y2P | 0.083 kcal/mol |

| Variant | folding stability dG |
| --- | --- |
| Y2A | 0.941 kcal/mol |
| A11V | 0.486 kcal/mol |
| A11N | 0.709 kcal/mol |
| A11S | 1.58 kcal/mol |
| A11Y | 0.624 kcal/mol |
| A11R | 0.546 kcal/mol |
| R13P | -0.953 kcal/mol |
| R13F | 0.619 kcal/mol |
| R13S | 0.553 kcal/mol |
| R13W | 0.841 kcal/mol |
| R13M | 0.987 kcal/mol |
| T1G | 1.37 kcal/mol |
| T1W | 2.65 kcal/mol |
| T1L | 1.37 kcal/mol |
| T1D | 0.915 kcal/mol |
| T1Y | 1.81 kcal/mol |
| T1N | 1.19 kcal/mol |
| T1S | 1.62 kcal/mol |
| D25A | 1.25 kcal/mol |
| D25F | 1.35 kcal/mol |
| D25Y | 1.27 kcal/mol |
| D25M | 1.36 kcal/mol |
| D25T | 1.46 kcal/mol |
| R27P | -0.472 kcal/mol |

| Variant | folding stability dG |
| --- | --- |
| R27K | 1.6 kcal/mol |
| R27T | 2.03 kcal/mol |
| R27Y | 1.52 kcal/mol |
| S12E | -0.128 kcal/mol |
| S12V | 2.17 kcal/mol |
| S12F | 1.08 kcal/mol |
| S12L | 1.39 kcal/mol |
| S12N | -0.531 kcal/mol |
| S12Y | 0.95 kcal/mol |
| S12K | 0.553 kcal/mol |
| T7W | 1.64 kcal/mol |
| T7D | 1.81 kcal/mol |
| T7K | 1.79 kcal/mol |
| T7L | 1.82 kcal/mol |
| T7A | 1.94 kcal/mol |
| T7Y | 2.02 kcal/mol |
| T7F | 1.91 kcal/mol |
| E16I | 1.82 kcal/mol |
| E16H | 1.08 kcal/mol |
| E16S | 1.47 kcal/mol |
| E16D | -0.24 kcal/mol |
| E16T | 1.29 kcal/mol |
| R40P | 0.016 kcal/mol |
| R40I | 1.51 kcal/mol |

| Variant | folding stability dG |
| --- | --- |
| R40V | 1.32 kcal/mol |
| R40F | 1.65 kcal/mol |
| R40C | 1.7 kcal/mol |
| R40T | 1.54 kcal/mol |
| R40N | 0.95 kcal/mol |
| N21H | 1.24 kcal/mol |
| N21M | 1.58 kcal/mol |
| T34L | 1.48 kcal/mol |
| T34I | 2 kcal/mol |
| T34E | 1.28 kcal/mol |
| T34Y | 1.66 kcal/mol |
| T34H | 1.2 kcal/mol |
| W19H | -0.397 kcal/mol |
| W19F | 1.04 kcal/mol |
| N32A | 1.12 kcal/mol |
| N32S | 0.857 kcal/mol |
| N32L | 0.77 kcal/mol |
| N32E | 1.15 kcal/mol |
| N32I | -0.191 kcal/mol |
| N32V | 0.08 kcal/mol |
| V28C | 0.766 kcal/mol |
| V28N | -0.678 kcal/mol |
| V28F | 0.162 kcal/mol |
| V28Q | -0.695 kcal/mol |

| Variant | folding stability dG |
| --- | --- |
| A15P | -0.743 kcal/mol |
| A15V | 2.21 kcal/mol |
| A15E | 0.824 kcal/mol |
| A15F | 1.85 kcal/mol |
| A15Y | 1.4 kcal/mol |
| A15N | 0.072 kcal/mol |
| A15T | 1.43 kcal/mol |
| A15M | 2.13 kcal/mol |
| A15G | -0.371 kcal/mol |
| R29Q | 1.18 kcal/mol |
| R29F | 1.63 kcal/mol |
| R29S | 1.55 kcal/mol |
| R29M | 1.26 kcal/mol |
| R29D | 0.413 kcal/mol |
| T3A | 0.556 kcal/mol |
| T3L | 1.46 kcal/mol |
| T3R | 1.12 kcal/mol |
| Y4S | -0.488 kcal/mol |
| Y4V | 0.852 kcal/mol |
| K5F | 2.34 kcal/mol |
| K5Y | 2.64 kcal/mol |
| K5Q | 1.71 kcal/mol |
| D17W | 1.92 kcal/mol |
| D17T | 1.99 kcal/mol |

| Variant | folding stability dG |
| --- | --- |
| D17G | 1.24 kcal/mol |
| E9M | 0.936 kcal/mol |
| E9F | 1.29 kcal/mol |
| E9P | 0.822 kcal/mol |
| E9S | 0.61 kcal/mol |
| E9R | 0.802 kcal/mol |
| E9D | 0.289 kcal/mol |
| E9H | 0.807 kcal/mol |
| E9I | 0.934 kcal/mol |
| V26T | 0.439 kcal/mol |
| L6H | 1.48 kcal/mol |
| L6I | 1.15 kcal/mol |
| L6R | -0.655 kcal/mol |
| L6Q | 0.88 kcal/mol |
| L6A | 1.4 kcal/mol |
| L6Y | 3.41 kcal/mol |
| N31H | 1.32 kcal/mol |
| N31D | 1.06 kcal/mol |
| N31A | 0.996 kcal/mol |
| N31S | 1.1 kcal/mol |
| N31R | 1.34 kcal/mol |
| N31G | 0.546 kcal/mol |
| V37Y | -0.753 kcal/mol |
| E18Q | 1.36 kcal/mol |

| Variant | folding stability dG |
| --- | --- |
| E18L | 2.04 kcal/mol |
| E36R | -0.245 kcal/mol |
| E36D | 0.292 kcal/mol |
| R22T | -0.242 kcal/mol |
| R22Y | 0.488 kcal/mol |
| R22D | -0.181 kcal/mol |
| D8S | 1.9 kcal/mol |
| D8Y | 0.298 kcal/mol |
| D8M | 0.146 kcal/mol |
| D8F | 0.427 kcal/mol |
| D8N | 1.47 kcal/mol |
| E10N | 1.12 kcal/mol |
| E10D | 1.38 kcal/mol |
| E10Q | 1.41 kcal/mol |
| E10L | 1.34 kcal/mol |
| E10C | 1.88 kcal/mol |
| E38R | 0.772 kcal/mol |
| E38W | 0.84 kcal/mol |
| G33M | -0.081 kcal/mol |
| G33A | -0.168 kcal/mol |
| N30H | 1.61 kcal/mol |
| N30M | 1.4 kcal/mol |
| N30R | 1.23 kcal/mol |
